Assay results taken from publication PMC10922747 (Cell, 2024).

B1: mouse PNMA2 (mPNMA2) protein (full length) (natural protein, UniProt Q8BHK0 1-365, looked up)
chain: MAVALLEEWCKIMGVDVQKSLLVVDIPVDCGEPEIQTVLQEALKCVGSYRLLGKIFQKQDNTSVVLVELMEDTDMSVVPSEVQGKGGVWKVIFKTPNQDTEFLQRLNLFLEKEGQTVAGMFRALKHEGVSPATPPCTSPELLAHLTGQAMVHGQRPLLPVKYCKMRIFSGSTAAAPEEEPFEVWLEQATEIAKEWPIPEAEKKRWVAESLRGPALDLMHIVQADNPSISVGECLEAFKQVFGSTESRRTSQVKYLRTYQQEGEKISAYVLRLETLLRRAVEKRAIPRNIADQVRLEQVMAGANLGNVLWCRLQELKDQGPLPTFLQLMKVIREEEEEEDAYFEQESREEPGEREGSGCWNNSRNN
B2: human PNMA2 (hPNMA2) protein (full length) (natural protein, UniProt Q9UL42 1-364, looked up)
chain: MALALLEDWCRIMSVDEQKSLMVTGIPADFEEAEIQEVLQETLKSLGRYRLLGKIFRKQENANAVLLELLEDTDVSAIPSEVQGKGGVWKVIFKTPNQDTEFLERLNLFLEKEGQTVSGMFRALGQEGVSPATVPCISPELLAHLLGQAMAHAPQPLLPMRYRKLRVFSGSAVPAPEEESFEVWLEQATEIVKEWPVTEAEKKRWLAESLRGPALDLMHIVQADNPSISVEECLEAFKQVFGSLESRRTAQVRYLKTYQEEGEKVSAYVLRLETLLRRAVEKRAIPRRIADQVRLEQVMAGATLNQMLWCRLRELKDQGPPPSFLELMKVIREEEEEEASFENESIEEPEERDGYGRWNHEGDD

Experiments:
cryo-EM structure = molecular target: the molecule itself; experiment: cryo-EM structure
negative-stain EM = molecular target: the molecule itself; experiment: negative-stain EM

| Protein | stoichiometry N (cryo-EM structure) | binding result (negative-stain EM) |
| --- | --- | --- |
| B1 | 60 | – |
| B2 | – | binds |
